Columns and labels:
MS2 coat protein [1] = assay: apparent KD of MS2 coat protein; designed switch direction (-1 OFF switch, 1 ON switch): 1; higher = weaker reporter binding; details: Eterna round: R98
Procedure: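 RNA-MaP: designed FMN/MS2 RNA switches (84 nt design region) are transcribed on-chip within common flanks and titrated with SNAP-549-labelled MS2 coat protein (about 1-3000 nM) in 100 mM Tris pH 7.5, 80 mM KCl, 4 mM MgCl2, without or with 200 uM FMN. Median apparent KD per design; activation ratio = KD,OFF / KD,ON.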

MS2 coat protein [2] = assay: apparent KD of MS2 coat protein, switch OFF state (with FMN for OFF switches, without FMN for ON switches); designed switch direction (-1 OFF switch, 1 ON switch): 1; higher = weaker reporter binding; details: FMN input: 0 or 200 uM; Eterna round: R93 (includes R88 designs)
How it was run: (§1)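 Titrations with SNAP-549-labelled MS2 coat protein ran in twofold steps from 0.7 or 1.5 nM to 3 µM, each step taking 0.8–1.5 h at the start and 10–20 min toward the end. The targets were designed RNA switches transcribed on-chip from Illumina sequencing clusters, held in 100 mM Tris-HCl pH 7.5, 80 mM KCl, 4 mM MgCl2, without or with constant ligand. Apparent KD was taken per design as the median of normalised cluster binding-curve fits.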

MS2 coat protein [3] = assay: apparent KD of MS2 coat protein, switch ON state; designed switch direction (-1 OFF switch, 1 ON switch): 1; higher = weaker reporter binding; details: FMN input: 0 or 200 uM; Eterna round: R93 (includes R88 designs)
How it was run: as §1

| Sequence | apparent KD of MS2 coat protein (MS2 coat protein [1]; input ligand: FMN 200 uM) [nM] | apparent KD of MS2 coat protein (MS2 coat protein [1]; input ligand: none) [nM] | apparent KD of MS2 coat protein (MS2 coat protein [2]) [nM] | apparent KD of MS2 coat protein (MS2 coat protein [3]) [nM] |
| --- | --- | --- | --- | --- |
| AAAACAUACCGAGGAUAUUCAUUUUAUAAAUAAACAUGAGGAUCACCCAUGUGGCAAAAGCCUAGGGAGAAGGCGGAAUGCUAA [salish99_SSNG2_r2_121] | 29.9 | 39.6 | – | – |
| AAAACAUGAGGAUCACCCAUGUAAAGAACGGUUAAUUAAAGUGAGGAUAUACAAAAUUUUAUAUAGUAGAAGGCACUGGGUACA [JR_SSNG3_Sub022] | 24.9 | 21.4 | – | – |
| AGCGGUAGGACAGGAUAUGGUGACUUCAAGCGGCCAGAAGGGUCCCGACAUGAGGAUCACCCAUGUCUUCCAGGCAGGGAGCGC [Teanisradi] | 710 | 234 | – | – |
| CACACAUGGUGAGGAUAUGCAGAGGAUCACCCUGUAGAAGGCAUCAGGGUAGAAGGUGCAAGGAUCACCUGUAAGGAUAUAUCC [pwkr2 ssNG1 DX.27] | 1030 | 1430 | – | – |
| CCAGAUGUGUGAGGAUAUAGAGUGGAAUACACUCUAGAAGGUAUGUGAAAACAUGAGGAUCACCCAUGUGAUUAAUCAUCUGGA [SameState #2 NG1] | 27.9 | 24.4 | – | – |
| CCCUCCAGAAGAGGGACAUGAGGAUCACCCAUGUAGGCUGCACAGGAUAUCGAUCGGAGGCGGUACGAGAAGGGUGACGUCAUU [Atleis] | 48.7 | 26.9 | – | – |
| CCUGACACUUGAGGAUAUGCUCAGGAUAACUGAGCAGAAGGCAGGAAAACCUGAGGAUCACCCAGGUAAGUCAGGAAUAAUAAA [Same State NG1 - A3C, U17G Submission 3B] | 15.8 | 21.7 | – | – |
| GACGAAAUCUUAGGAUAUGCUCAGGAAUACUGAGCAGAAGGAAGAUAUACCUGAGGAUCACCCAGGUUAAACUGGACGUCAAUA [Same State NG1 - A3C, U17G Submission 8I U7A] | 24.9 | 29.4 | – | – |
| GCAGAAGGUGCGGAGGAUCACCCUGUAAGGAUAUGCAUUAGCAAGGAUAUACAGAGGAUCACCCUGUAGAAGGUGCACUACUCA [pwkr2 ssNG3 DX.3] | 562 | 1970 | – | – |
| GCUUGCGACGCAGGAUAUGGGUGCCUGCACAUGAGCAUCAGCCAUGUUGAGGAACGGAUUACGUCUCAGAAGGGCGUGGCAGGC [United States 3 - Jieux - Same State NG 2] | 16.7 | 19.9 | – | – |
| GGAUCCAACACAGGAUAUGCUGGACUUUGUCCAGCAGAAGGGUGAAACAUGAGGAUCACCCAUGUAUGGAUCCAUAUAUUUAAU [Denovo 32] | 245 | 629 | – | – |
| GGCUUAAACACAGGAUAUAGCCUUAGAGUGAGGCUAGAAGGGUGAAGUUCUCAUACAUGAGGAUCACCCAUGUCACGGAGGCUA [Atteedbian] | 307 | 37.1 | – | – |
| GGGAGGAAGAGAGAGGAUAUCCAAAGGAAAACAUGAGGAUCACCCAUGUAAAAGGUAGGAAAUUGGGAGAAGGCUCAAAAGAUGG [salish99-ss2-046] | – | – | 22.3 | 70.5 |
| GUAGCAUACAGAGGAUAUUCAAACCGGAAACGGACAUGAGGAUCACCCAUGUGGCGAAAGCCUAGGGAGAAGGCUGAAUGCUAC [Xeinanis 75 40] | 11.7 | 16 | – | – |
| GUAGCAUACCGAGGAUAUUCAUCCGGAUUACGGACAUGAGGAUCACCCAUGUGGCGAAAGCCUUGGGAGAAGGCGGAAUGCUAC [Xeinanis 75 33] | 34.4 | 369 | – | – |
| GUCCCAGUCACAGGAUAUGGCUCCGUAAUGGAGCCAGAAGGGUGAUAUUCAGAAAACACACAUGAGGAUCACCCAUGUAAUAAA [Enindiinso] | 188 | 774 | – | – |
| UAACGCGCAUGCAAGGAUAUGUGCAGAGCUACAUGAGGAUCACCCAUGUGGUUAUGCUAUUGAAAACAGAAGGUGCCCUCGCUCA [Ceties] | – | – | 16.8 | 22.4 |
| UAUAUAUGGUGAGGAUAUGCAGAGGAUCACCCUGUAGAAGGCAUCAGGGUAGAAGGUGCAAGGAUCACCUGUAAGGAUAUAUCC [pwkr2 ssNG1 DX.30] | 587 | 1370 | – | – |
| UAUCAUUACACGAAGGAUAUCGAUAAUUGAACAUGAGGAUCACCCAUGUGAUAUAUAAUACAGUUCGAGAAGGUCGAGGGUGAAG [JR_SS002_Sub704] | – | – | 23.9 | 17.8 |
| UAUUGCGCCGUAAAAUAACACAUGAGGAUCACCCAUGUGACACAGGAUAUAACCAGAUCAGAAAGUUAGAAGGGUGAAAACGGC [Edraed Mod 3 - Jieux - Same State NG3] | 20.4 | 30.8 | – | – |
| UGAAGACAUGAGGAUCACCCAUGUGGGAAUAUGGGAGGAUAUACAAAGACGAGAGUCAGAGUAGAAGGCCUAGGAA [salish99-ss1-95] | – | – | 114 | 28.5 |
| UGAAGACAUGAGGAUCACCCAUGUGGGAAUAUGGGAGGAUAUACAAAGACGAGAGUCAGAGUAGAAGGCCUAGGAG [salish99-ss1-97] | – | – | 103 | 55.1 |
| UGAGGACAUGAGGAUCACCCAUGUAGGCCACAAUCAGGAUAUGCAUUAAGGUACCUAAGAGUAGAAGGGAUUCGAG [SameState_Neo] | – | – | 30.8 | 34.9 |
| UGAUCGCUUGGAGGAUAUCCAACUAUCCUAGUUGGAGAAGGCCAAGCUACAGAGCUAAGCUUGGAAGUCACUUCGGAUCAACAC [pwkr ssNG1 F9.4.1] | 65.5 | 32.7 | – | – |
| UGGAGACAUGAGGAUCACCCAUGUGAGAAGAGGCGAGGAUAUCGAAAGAAAGAAGAGAAACGAGAAGGCGCGAGAU [salish99-SS1-034] | – | – | 27.6 | 21 |
| UGGAGACAUGAGGAUCACCCAUGUGAGAAGAGGCGAGGAUAUCGAAAGAAAGAAGAGAAACGAGAAGGCGCGAGGA [salish99-SS1-039] | – | – | 49.8 | 47.6 |
| UGGAGACAUGAGGAUCACCCAUGUGAGAAGAGGCGAGGAUAUCGAAAGAAAGAAGAGAAACGAGAAGGCGCGAGGU [salish99-SS1-036] | – | – | 49.6 | 34.4 |
| UGUCUACCUGAUGAGGAUAUCCCACAGGCGACAUGAGGAUCACCCAUGUAAAGUAAGCGUAGGCGGGAGAAGGCAUGGCGGAGAC [Larearre] | – | – | 30.7 | 14.5 |
| UUUAGUUGCGGGCAGGAUAUGUAUUAAAAUACAUGAGGAUCACCCAUGUGCGGGUAUAACACCCGACAGAAGGGCCAAUCGCGAC [Laonerce] | – | – | 305 | 18.3 |

— the supplement of paper PMC9170038
